The target in data set [1] is cH5-1 (misfolded H5 of A/VN/1203/04, heat cycling).
Data set [2] has as its target T1, dOVA-3 (misfolded ovalbumin comprising crossbeta, about 16 h at 75 C), P01012.
T1 chain: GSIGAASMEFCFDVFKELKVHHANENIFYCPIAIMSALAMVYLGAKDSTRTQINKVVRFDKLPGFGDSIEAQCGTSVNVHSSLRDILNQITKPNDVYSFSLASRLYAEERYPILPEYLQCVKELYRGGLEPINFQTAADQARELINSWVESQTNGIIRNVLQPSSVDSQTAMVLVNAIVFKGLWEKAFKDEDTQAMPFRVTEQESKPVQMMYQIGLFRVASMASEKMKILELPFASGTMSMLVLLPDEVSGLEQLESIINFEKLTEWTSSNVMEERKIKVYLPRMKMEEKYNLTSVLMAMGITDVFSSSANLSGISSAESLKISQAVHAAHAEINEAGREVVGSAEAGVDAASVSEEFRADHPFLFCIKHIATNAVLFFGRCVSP

The target in data set [3] is nH5 (non-treated H5 of H5N1 strain A/Vietnam/1203/04, first example).
Data set [4] addresses T2, nOVA (untreated ovalbumin, 1 mg/ml in PBS), P01012.
T2 chain: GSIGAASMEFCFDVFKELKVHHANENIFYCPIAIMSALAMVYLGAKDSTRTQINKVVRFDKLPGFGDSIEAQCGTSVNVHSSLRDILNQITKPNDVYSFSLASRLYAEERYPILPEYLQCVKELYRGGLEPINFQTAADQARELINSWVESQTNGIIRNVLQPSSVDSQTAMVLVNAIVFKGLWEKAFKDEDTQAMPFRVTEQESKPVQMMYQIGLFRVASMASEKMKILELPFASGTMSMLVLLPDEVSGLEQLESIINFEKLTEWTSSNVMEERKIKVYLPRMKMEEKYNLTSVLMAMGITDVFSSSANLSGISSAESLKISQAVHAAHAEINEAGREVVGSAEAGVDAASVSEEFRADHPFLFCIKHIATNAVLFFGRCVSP

In data set [5] the target is T3, dOVA-2 (misfolded ovalbumin comprising crossbeta, cyclic heating 30-85 C), P01012.
T3 chain: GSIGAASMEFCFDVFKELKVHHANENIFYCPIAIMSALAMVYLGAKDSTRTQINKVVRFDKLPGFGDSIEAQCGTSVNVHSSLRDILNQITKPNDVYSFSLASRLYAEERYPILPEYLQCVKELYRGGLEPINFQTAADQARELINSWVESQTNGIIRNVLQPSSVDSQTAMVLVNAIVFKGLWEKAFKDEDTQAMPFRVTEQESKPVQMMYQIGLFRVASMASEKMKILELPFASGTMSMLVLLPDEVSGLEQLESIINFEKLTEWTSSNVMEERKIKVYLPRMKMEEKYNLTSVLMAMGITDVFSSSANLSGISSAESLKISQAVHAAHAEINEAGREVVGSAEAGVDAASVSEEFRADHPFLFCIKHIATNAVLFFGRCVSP

Data set [6] has as its target cH5-3 (misfolded H5 of A/VN/1203/04, heat cycling at pH 12).
Data set [7] has as its target cH5-2 (misfolded H5 of A/VN/1203/04, heat cycling at pH 2).
Data set [8] concerns the target cH5-4 (glycated H5 of A/VN/1203/04).
The target of data set [9] is T4, dOVA-1 (misfolded ovalbumin comprising crossbeta, acid treated), P01012.
T4 chain: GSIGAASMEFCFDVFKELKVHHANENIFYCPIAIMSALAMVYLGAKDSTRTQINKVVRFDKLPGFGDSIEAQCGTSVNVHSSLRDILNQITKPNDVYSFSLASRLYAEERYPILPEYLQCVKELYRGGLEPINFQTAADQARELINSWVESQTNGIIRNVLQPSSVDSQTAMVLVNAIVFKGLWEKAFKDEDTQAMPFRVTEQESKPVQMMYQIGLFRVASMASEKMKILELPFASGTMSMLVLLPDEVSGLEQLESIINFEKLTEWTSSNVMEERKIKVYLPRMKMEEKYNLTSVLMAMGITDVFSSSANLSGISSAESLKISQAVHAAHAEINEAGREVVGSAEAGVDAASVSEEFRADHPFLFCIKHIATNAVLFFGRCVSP

B1: tissue type plasminogen activator (tPA) (protein)
chain: SYQVICRDEKTQMIYQQHQSWLRPVLRSNRVEYCWCNSGRAQCHSVPVKSCSEPRCFNGGTCQQALYFSDFVCQCPEGFAGKCCEIDTRATCYEDQGISYRGTWSTAESGAECTNWNSSALAQKPYSGRRPDAIRLGLGNHNYCRNPDRDSKPWCYVFKAGKYSSEFCSTPACSEGNSDCYFGNGSAYRGTHSLTESGASCLPWNSMILIGKVYTAQNPSAQALGLGKHNYCRNPDGDAKPWCHVLKNRRLTWEYCDVPSCSTCGLRQYSQPQFRIKGGLFADIASHPWQAAIFAKHRRSPGERFLCGGILISSCWILSAAHCFQERFPPHHLTVILGRTYRVVPGEEEQKFEVEKYIVHKEFDDDTYDNDIALLQLKSDSSRCAQESSVVRTVCLPPADLQLPDWTECELSGYGKHEALSPFYSERLKEAHVRLYPSSRCTSQHLLNRTVTDNMLCAGDTRSGGPQANLHDACQGDSGGPLVCLNDGRMTLVGIISWGLGCGQKDVPGVYTKVTNYLDWIRDNMRP
As for B1, the “tPA mediated plasminogen activation assay” value in data set [1] is given as “cH5-1 (50% of standard)”; in data set [3], “nH5 (140% of standard)”; in [6] it was “cH5-3 (200% of standard)”; in [7], “cH5-2 (150% of standard)”; in data set [8], “cH5-4 (37% of standard)”. The tPA activation potency, Activation at 10 µg/mL in data set [2] was 60.9%; in data set [4], 48.8%; in data set [5] it was 107%; in data set [9] it was 97.4%. Moreover, the tPA activation potency, Activation at 25 µg/mL in [2] came to 79%; in data set [4], 48.1%; in [5], 107%; in [9] it was 136%. Further, in data set [5], the tPA-mediated plasminogen activation (plasmin chromogenic substrate), reference dOVA-2 at 80 µg/mL is 100%. The “tPA/Plg activating potential, crossbeta ovalbumin standard at 10 µg/ml” value in data set [5] is “at 10 and 50 µg/ml, tPA/plg activation is 100% and 85%, respectively”. Also, the “tPA/Plg activating potential, crossbeta ovalbumin standard at 30 µg/ml” value in data set [5] is reported as “The activating potential of crossbeta ovalbumin standard at 30 µg/ml is set to 100%”. Further, in [5], the “tPA/Plg activating potential, crossbeta ovalbumin standard at 50 µg/ml” value is “at 10 and 50 µg/ml, tPA/plg activation is 100% and 85%, respectively”.
